Source: article PMC11054746, “GRPR-Antagonists Carrying DOTAGA-Chelator via Positively Charged Linkers: Perspectives for Prostate Cancer Theranostics” (Pharmaceutics, 2024)
Starred links: 1 amine or outer side, 2 acyl side, 3 side chain; linkers in the order of their positions; H or OH if unused. Non-standard residues stand in square brackets, D forms with d. Residues, ends and D or L forms follow the SMILES beside them. *: point of attachment. DOTAGA = O=C(O)CN1CCN(CC(=O)O)CCN(C(CCC(=O)*)C(=O)O)CCN(CC(=O)O)CC1; Sta = CC(C)C[C@H](N)[C@@H](O)CC(=O)O; X1 = O=C(CN1CCC(N[*:1])CC1)[*:2]; Sar = CNCC(=O)O

Tests used:
human GRPR = target: T1, human GRPR (Homo sapiens, UniProt P30550); assay: Affinity measurements in real time (LigandTracer) on PC-3 cells; type: binding; settings: room temperature, 1:2 fitting interaction model
T1 construct: host or cells: PC-3 human prostate adenocarcinoma cells
Procedure: The association curves were recorded at 1 nM and 3 nM of the radiolabeled peptides for 300 min. After reaching the plateau, the medium containing the radioligand was replaced with fresh medium and the dissociation curve was measured for about 16 h. The obtained sensorgrams were analyzed using TracerDrawer (Ridgeview Instruments AB, Uppsala, Sweden) and the dissociation constants (KD) were calculated.

PC-3 cells [1] = assay: In vitro binding specificity assay (uptake with and without GRPR blocking by NOTA-PEG2-RM26); type: cell-based, human; settings: 1 nM radiotracer, 1 h, unblocked
Procedure: The in vitro binding assay was performed on PC-3 cells seeded in 6-well plates (1.15 × 10^6 cells/well). Media containing a GRPR-blocking agent (NOTA-PEG2-RM26, 1 μM) were added to half of the wells. The plates were incubated at room temperature for 10 min and the medium containing the radiotracer under investigation was added to all wells in a final concentration of 1 nM. The plates were incubated for 1 h and then treated with 0.25% trypsin-EDTA to detach cells. The cells were collected and their activity was measured using the gamma counter.

[2] = Radiochemical stability: indium release in PBS or with EDTA excess, by iTLC; type: physicochemical; settings: room temperature, 0.2 M citric acid, mean ± sd, n = 3
Procedure: The radiochemical yield was analyzed with instant thin layer chromatography (iTLC) strips (Agilent Technologies, Santa Clara, CA, USA), using 0.2 M citric acid buffer as a mobile phase (Rf = 0 for the radiolabeled peptide and Rf = 1 for free indium). The iTLC results were analyzed using Cyclone® Plus Phosphorimager (PerkinElmer, Hägersten, Sweden). The radiochemical stability was determined by incubating the radiolabeled compounds with phosphate-buffered saline (PBS) or a 1000-fold molar excess of ethylenediaminetetraacetic acid (EDTA) for 1 h at room temperature. The percentage of indium release was assessed by iTLC using 0.2 M citric acid as mobile phase. Stability tests were performed in triplicate for each compound.

PC-3 cells [3] = assay: Cellular internalization; type: cell-based, human; settings: 1 nM, acid wash, mean of 3 dishes ± sd, normalized to maximum cell association at 24 h
Procedure: For the cellular internalization assay, PC-3 cells (1 × 10^6 cells/dish) were used. The cells were incubated with 1 mL (1 nM) of solution containing the radiolabeled peptide under evaluation. At the 4 h and 24 h time points, the cells were treated with an acid wash (0.2 M glycine buffer with 0.15 M NaCl and 4 M urea, pH 2) for 5 min on ice to remove the membrane-bound peptide. After collection of acid fractions, the cells were treated with 1 M NaOH for at least 30 min and the cell debris were scraped and collected. The activity content in samples was measured using the gamma counter.

PC-3 xenografts = assay: in vivo; parameters: species or system BALB/C nu/nu mice; settings: mouse
Procedure: (§1) All in vivo studies were performed following European guidelines on laboratory animal protection. The in vivo stability experiments were carried out in healthy male Swiss albino mice; the study protocol was approved by the Department of Agriculture and Veterinary Service of the Prefecture of Athens (protocol number #440448, 01-06-2021). The biodistribution, in vivo targeting specificity assay, and SPECT/CT imaging experiments were carried out on BALB/C nu/nu mice. The Ethics Committee for Animal Research in Uppsala (Sweden) approved the latter in vivo animal studies (permit number 00473/21). The BALB/C nu/nu mice were implanted with GRPR-positive prostate cancer xenografts by subcutaneous injection on the right hind leg of PC-3 cells suspended in PBS (7 × 10^6 cells/mouse) four weeks before the biodistribution studies.
(§2) The mice were iv injected with 40 pmol peptide (30 kBq in a total volume of 100 μL 1% bovine serum albumin (BSA) in PBS). […] At the indicated time points, mice were euthanized under anesthesia. The organs of interest were collected, weighed, and the sample radioactivity content was measured on the gamma counter. The percentage of injected activity per gram (%IA/g) of collected tumors, organs and tissues, the %IA for the remaining gastrointestinal tract and carcass, as well as the tumor-to-organ ratios (T/O) were calculated.

in vivo = assay: in vivo; parameters: species or system BALB/C nu/nu mice; settings: BALB/C nu/nu, mouse, iv, total radioactivity; for tissue to tissue ratio at 4 h / tissue to tissue ratio at 24 h: Tumor-to-organ ratio
Procedure: as §1, §2

[4] = 40 pmol, GI (gastrointestinal tract, GIT) uptake

T1 sequence (P30550 whole entry): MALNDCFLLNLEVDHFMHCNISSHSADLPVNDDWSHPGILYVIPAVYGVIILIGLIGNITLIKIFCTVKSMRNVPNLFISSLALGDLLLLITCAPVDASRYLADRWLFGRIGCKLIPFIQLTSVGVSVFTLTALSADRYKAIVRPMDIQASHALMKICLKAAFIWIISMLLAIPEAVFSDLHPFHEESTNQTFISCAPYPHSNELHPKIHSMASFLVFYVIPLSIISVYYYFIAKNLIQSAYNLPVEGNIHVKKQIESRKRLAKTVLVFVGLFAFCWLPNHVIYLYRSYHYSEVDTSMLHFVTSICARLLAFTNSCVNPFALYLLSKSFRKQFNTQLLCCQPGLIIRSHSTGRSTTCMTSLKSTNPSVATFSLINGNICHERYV

`CC(C)C[C@H](NC(=O)C[C@H](O)[C@H](CC(C)C)NC(=O)[C@H](Cc1c[nH]cn1)NC(=O)CN(C)C(=O)[C@@H](NC(=O)[C@H](C)NC(=O)[C@H](Cc1c[nH]c2ccccc12)NC(=O)[C@H](CCC(N)=O)NC(=O)[C@@H](Cc1ccccc1)NC(=O)CN1CCC(NC(=O)[C@H](CCCNC(=N)N)NC(=O)[C@H](CCCNC(=N)N)NC(=O)CCC(C(=O)O)N2CCN(CC(=O)O)CCN(CC(=O)O)CCN(CC(=O)O)CC2)CC1)C(C)C)C(N)=O` (stereo partly drawn) [[^111In]In-AU-RM26-M4, metal not drawn] ({DOTAGA}-RR[X1][dF]QWAV[Sar]H[Sta]L-NH2) showed a ka1 (human GRPR; association at 1 and 3 nM) of 344000 M⁻¹ s⁻¹, a ka2 (human GRPR; association at 1 and 3 nM) of 346000 M⁻¹ s⁻¹ and a kd1 (human GRPR; dissociation about 16 h) of 2e-06 s⁻¹. The kd2 (human GRPR; dissociation about 16 h) was 2.08e-06 s⁻¹, the “cell uptake, fold higher than the other analogs of the series” value (PC-3 cells [1]) was 2 fold and the “released [111In]In3+, ×1000 EDTA (1 h)” value ([2]; 1000-fold molar excess of EDTA) was 3.2 ± 0.1% (3). The “released [111In]In3+, PBS” value ([2]; incubation in PBS, 1 h) was 1.9 ± 0.1% (3), the “internalized fraction at 24 h” value (PC-3 cells [3]) was 33 ± 7% and the Blood uptake (PC-3 xenografts; BALB/C nu/nu, iv, 40 pmol, 4 h) was 0.125 ± 0.0004 %IA/g. The “kidney uptake at 24 h pi retained as % of the 4 h renal value” (PC-3 xenografts) was less than 38%, the “pancreas uptake at 24 h pi as % of the initial 4 h uptake” value (PC-3 xenografts) was “less than 10%” and the tissue uptake at 4 h (in vivo; 40 pmol, Blood uptake) was 0.122 ± 0.0013 %ID/g. The tissue uptake at 24 h (in vivo; 40 pmol, Blood uptake) was 0.02 ± 0.01 %ID/g, the tissue uptake at 4 h (in vivo; 40 pmol, Bone uptake) was 0.13 ± 0.04 %ID/g and the tissue uptake at 24 h (in vivo; 40 pmol, Bone uptake) was 0.09 ± 0.02 %ID/g. It also gave a tissue uptake dose at 4 h (in vivo; 40 pmol, Carcass (whole body) uptake) of 3 ± 1.5 %ID, a tissue uptake dose at 24 h (in vivo; 40 pmol, Carcass uptake) of 0.8 ± 0.2 %ID and a tissue uptake dose at 4 h (in vivo; [4]) of 1.4 ± 0.3 %ID. It also gave a tissue uptake dose at 24 h (in vivo; [4]) of 0.15 ± 0.03 %ID, a tissue uptake at 4 h (in vivo; 40 pmol, Kidneys uptake) of 7 ± 1 %ID/g and a tissue uptake at 24 h (in vivo; 40 pmol, Kidneys uptake) of 2.7 ± 0.1 %ID/g. It also gave a tissue uptake at 4 h (in vivo; 40 pmol, Liver uptake) of 0.6 ± 0.11 %ID/g, a tissue uptake at 24 h (in vivo; 40 pmol, Liver uptake) of 0.31 ± 0.07 %ID/g and a tissue uptake at 4 h (in vivo; 40 pmol, Lungs uptake) of 0.2 ± 0.08 %ID/g. It also gave a tissue uptake at 24 h (in vivo; 40 pmol, Lungs uptake) of 0.06 ± 0.02 %ID/g, a tissue uptake at 4 h (in vivo; 40 pmol, Muscle uptake) of 0.06 ± 0.02 %ID/g and a tissue uptake at 24 h (in vivo; 40 pmol, Muscle uptake) of 0.02 ± 0.01 %ID/g. It also gave a tissue uptake at 4 h (in vivo; 40 pmol, Pancreas uptake) of 3.4 ± 0.6 %ID/g, a tissue uptake at 24 h (in vivo; 40 pmol, Pancreas uptake) of 0.36 ± 0.08 %ID/g and a tissue uptake at 4 h (in vivo; 40 pmol, Small Int uptake) of 1.1 ± 0.3 %ID/g. For the same compound, the tissue uptake at 24 h (in vivo; 40 pmol, Small Int uptake) was 0.11 ± 0.03 %ID/g, the tissue uptake at 4 h (in vivo; 40 pmol, Spleen uptake) was 0.23 ± 0.07 %ID/g and the tissue uptake at 24 h (in vivo; 40 pmol, Spleen uptake) was 0.14 ± 0.04 %ID/g. It also gave a tissue uptake at 4 h (in vivo; 40 pmol, Tumor uptake) of 15 ± 5 %ID/g, a tissue uptake at 24 h (in vivo; 40 pmol, Tumor uptake) of 7 ± 3 %ID/g and a tissue to tissue ratio at 4 h (in vivo; 40 pmol, Blood) of 123 ± 43. It also gave a tissue to tissue ratio at 24 h (in vivo; 40 pmol, Blood) of 369 ± 228, a tissue to tissue ratio at 4 h (in vivo; 40 pmol, Bone) of 119 ± 40 and a tissue to tissue ratio at 24 h (in vivo; 40 pmol, Bone) of 79 ± 25. The tissue to tissue ratio at 4 h (in vivo; 40 pmol, Kidneys) was 2.3 ± 0.9, the tissue to tissue ratio at 24 h (in vivo; 40 pmol, Kidneys) was 2.6 ± 0.9 and the tissue to tissue ratio at 4 h (in vivo; 40 pmol, Liver) was 25 ± 11. For the same compound, the tissue to tissue ratio at 24 h (in vivo; 40 pmol, Liver) was 23 ± 9, the tissue to tissue ratio at 4 h (in vivo; 40 pmol, Lungs) was 90 ± 59 and the tissue to tissue ratio at 24 h (in vivo; 40 pmol, Lungs) was 120 ± 61. It also gave a tissue to tissue ratio at 4 h (in vivo; 40 pmol, Muscle) of 307 ± 168, a tissue to tissue ratio at 24 h (in vivo; 40 pmol, Muscle) of 347 ± 176 and a tissue to tissue ratio at 4 h (in vivo; 40 pmol, Pancreas) of 4 ± 1. It also gave a tissue to tissue ratio at 24 h (in vivo; 40 pmol, Pancreas) of 20 ± 5, a tissue to tissue ratio at 4 h (in vivo; 40 pmol, Small Int) of 15 ± 7 and a tissue to tissue ratio at 24 h (in vivo; 40 pmol, Small Int) of 67 ± 35. The tissue to tissue ratio at 4 h (in vivo; 40 pmol, Spleen) was 71 ± 37, the tissue to tissue ratio at 24 h (in vivo; 40 pmol, Spleen) was 54 ± 30 and the tissue uptake dose at 4 h (in vivo; Carcass uptake, Block) was 1.6 ± 0.3 %ID. It also gave a tissue uptake dose at 4 h (in vivo; GI (gastrointestinal tract, GIT) uptake, Block) of 0.5 ± 0.2 %ID.
